Laboratory results: US20240067728A1 (BIO THERA SOLUTIONS, published 2024)
Positions count from the first letter of the chain named. Names may count otherwise. Like-named read-outs stand apart in the source and are kept apart here.

How the values were obtained:
[1] = molecular target: T1, CD47-His antigen (human, UniProt Q08722 19-139); test: SPR (Biacore), method of Example 5, Two State Reaction fit
T1 construct: Human CD47 ECD with C-terminal 8xHIS tag, expressed in HEK293F; also called hCD47-His; human CD47-His

[2] = molecular target: T2, PD-L1 on CHO-PD-L1 cells (Promega PD-1/PD-L1 Blockade Bioassay) (UniProt Q9NZQ7 19-290, limits assumed); test: cell-based or functional assay
[3] = molecular target: T1, CD47-His antigen; test: SPR (Biacore), method of Example 5, 1:1 Binding fit
[4] = molecular target: T3, PD-L1-His antigen (human, UniProt Q9NZQ7 19-238); test: as above
T3 construct: Human PD-L1 ECD with C-terminal 8xHIS tag, expressed in HEK293F; also called hPDL1-His; human PD-L1-His

[5] = molecular target: T4, human PD-L1 on PD-L1-CHO cells (human, UniProt Q9NZQ7 19-290); test: FACS on PD-L1-CHO cells, PE-labeled anti-human Fc secondary antibody; MFI(Mean) against Con(nM)
T4 construct: whole, on cells; also called CHO cells overexpressing human PD-L1; PD-L1 expressed on the cell surface

[6] = molecular target: T5, human CD47 on CD47-CHO cells (human, UniProt Q08722 19-323); test: FACS on CD47-CHO cells, PE-labeled anti-human Fc secondary antibody; MFI(Mean) against Con(nM)
T5 construct: whole, on cells; also called CHO cells overexpressing human CD47; CD47 expressed on the cell surface

[7] = molecular target: T4, human PD-L1 on PD-L1-CHO cells; test: FACS on PD-L1-CHO cells, PE-labeled anti-human Fc secondary antibody; MFI(Mean) against Con(nM); remark: listed apart in the source
[8] = molecular target: T2, PD-L1 on CHO-PD-L1 cells (Promega …); test: cell-based or functional assay; remark: listed apart in the source
[9] = molecular target: T2, PD-L1 on CHO-PD-L1 cells (Promega …); test: cell-based or functional assay; remark: listed apart in the source
[10] = molecular target: T3, PD-L1-His antigen; test: SPR (Biacore T200), PD-L1-His immobilised on chip, antibody as mobile phase, 1:1 Binding fit
[11] = molecular target: T1, CD47-His antigen; test: SPR (Biacore), method of Example 5; cell carries an unexplained mark ^
[12] = molecular target: T1, CD47-His antigen; test: SPR (Biacore), method of Example 5, 1:1 Binding fit; remark: listed apart in the source
[13] = molecular target: T6, CD47 on human T lymphocyte leukemia Jurkat cells (human, UniProt Q08722 19-323); test: FACS on Jurkat cells, PE-labeled anti-human Fc secondary antibody; MFI(Mean) against Con(nM)
T6 construct: whole, on cells; also called tumor cells

[14] = molecular target: T5, human CD47 on CD47-CHO cells; test: FACS on CD47-CHO cells, PE-labeled anti-human Fc secondary antibody; MFI(Mean) against Con(nM); remark: listed apart in the source
[15] = molecular target: T7, CD47 on human red blood cells (human, UniProt Q08722 19-323); test: FACS on human red blood cells, PE-labeled anti-human Fc secondary antibody; MFI(Mean) against Con(nM)
T7 construct: whole, on cells; also called RBC

T3 sequence (Q9NZQ7 other isoform, or with tags, fused parts or gaps limits assumed): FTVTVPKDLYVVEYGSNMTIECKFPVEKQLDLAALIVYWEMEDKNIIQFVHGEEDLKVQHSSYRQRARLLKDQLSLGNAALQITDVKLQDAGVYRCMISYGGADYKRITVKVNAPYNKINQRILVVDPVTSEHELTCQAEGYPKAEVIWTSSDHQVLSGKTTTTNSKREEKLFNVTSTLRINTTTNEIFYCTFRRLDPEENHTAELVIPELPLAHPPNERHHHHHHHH
T2 sequence (Q9NZQ7 19-290 limits assumed): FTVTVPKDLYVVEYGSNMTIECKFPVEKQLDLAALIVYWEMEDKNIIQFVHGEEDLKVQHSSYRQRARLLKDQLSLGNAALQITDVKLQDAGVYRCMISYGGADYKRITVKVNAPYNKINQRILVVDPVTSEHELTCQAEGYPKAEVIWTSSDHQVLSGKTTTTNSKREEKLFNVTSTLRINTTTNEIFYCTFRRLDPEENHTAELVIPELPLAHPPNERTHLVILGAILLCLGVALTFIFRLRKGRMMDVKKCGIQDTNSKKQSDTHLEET
T4 sequence (Q9NZQ7 19-290): as the sequence (Q9NZQ7 19-290 limits assumed) above

B1: BsAb-71 (bispecific antibody, human IgG1, kappa)
heavy 1: not shown
heavy 2: not shown
light: EIVLTQSPSSLSASVGDRVTITCLASQTIGTWLAWYQQKPGKSPQLLIYAASTLQSGVPSRFSGSGSGTDFTLTISSLQPEDVATYYCQQYYSTPRTFGQGTKVEIKRTVAAPSVFIFPPSDEQLKSGTASVVCLLNNFYPREAKVQWKVDNALQSGNSQESVTEQDSKDSTYSLSSTLTLSKADYEKHKVYACEVTHQGLSSPVTKSFNRGEC
notes: Knob-into-hole IgG1-like bispecific with common light chain; first heavy chain is the anti-PD-L1 arm, second the anti-CD47 arm; also called anti-PD-L1/CD47 bispecific antibody BsAb-71
- Kd [1]: 3.78 nM
- EC50 (luciferase reporter, PD-1/PD-L1 blockade MOA assay; blocked partner: PD-1 on Jurkat-PD1 cells) [2]: 0.285 µg/mL
- Kd [3]: 27.8 nM
- Kd [4]: 0.174 nM

B2: BsAb-36 (bispecific antibody, human IgG1, kappa)
heavy 1: not shown
heavy 2: not shown
light: B1 light
notes: Knob-into-hole IgG1-like bispecific with common light chain; first heavy chain is the anti-PD-L1 arm, second the anti-CD47 arm; also called anti-PD-L1/CD47 bispecific antibody BsAb-36
- Kd [1]: 4.49 nM
- EC50 (read off the curve) [5]: ~0.7 nM
- EC50 (luciferase reporter, PD-1/PD-L1 blockade MOA assay; blocked partner: PD-1 on Jurkat-PD1 cells) [2]: 0.208 µg/mL
- Kd [3]: 28 nM
- Kd [4]: 0.352 nM

B3: BsAb-47 (bispecific antibody, human IgG1, kappa)
heavy 1: not shown
heavy 2: not shown
light: B1 light
notes: Knob-into-hole IgG1-like bispecific with common light chain; first heavy chain is the anti-PD-L1 arm, second the anti-CD47 arm; also called anti-PD-L1/CD47 bispecific antibody BsAb-47
- Kd [1]: 4.77 nM
- EC50 (read off the curve) [5]: ~0.8 nM
- EC50 (luciferase reporter, PD-1/PD-L1 blockade MOA assay; blocked partner: PD-1 on Jurkat-PD1 cells) [2]: 0.295 µg/mL
- Kd [3]: 28.4 nM
- Kd [4]: 0.223 nM
- EC50 (read off the curve) [6]: ~4 nM

B4: BsAb-71-N297A (bispecific antibody, human IgG1, kappa, N297A)
heavy 1: EVQLVESGGGLVQPGGSLRLSCAASGFTFSDSWIHWVRQAPGKGLEWVGWISPYGGSTYYADSYRSRFTISADTSKNTAYLQMNSLRAEDTAVYYCARRHWPGGFDYWGQGTLVTVSSASTKGPSVFPLAPSSKSTSGGTAALGCLVKDYFPEPVTVSWNSGALTSGVHTFPAVLQSSGLYSLSSVVTVPSSSLGTQTYICNVNHKPSNTKVDKKVEPKSCDKTHTCPPCPAPELLGGPSVFLFPPKPKDTLMISRTPEVTCVVVDVSHEDPEVKFNWYVDGVEVHNAKTKPREEQYASTYRVVSVLTVLHQDWLNGKEYKCKVSNKALPAPIEKTISKAKGQPREPQVYTLPPCRDELTKNQVSLWCLVKGFYPSDIAVEWESNGQPENNYKTTPPVLDSDGSFFLYSKLTVDKSRWQQGNVFSCSVMHEALHNHYTQKSLSLSPGK
heavy 2: not shown
light: B1 light
notes: BsAb-71 with the N297A mutation in the Fc region; also called anti-PD-L1/CD47 bispecific antibody BsAb-71-N297A
- EC50 (read off the curve) [7]: ~0.5 nM
- EC50 (luciferase reporter, PD-1/PD-L1 blockade MOA assay; blocked partner: PD-1 on Jurkat-PD1 cells) [8]: 0.164 µg/mL

B5: BsAb-46 (bispecific antibody, human IgG1, kappa)
heavy 1: not shown
heavy 2: not shown
light: B1 light
notes: Knob-into-hole IgG1-like bispecific with common light chain; first heavy chain is the anti-PD-L1 arm, second the anti-CD47 arm; also called anti-PD-L1/CD47 bispecific antibody BsAb-46
- Kd [1]: 3.95 nM
- EC50 (read off the curve) [5]: ~0.8 nM
- EC50 (luciferase reporter, PD-1/PD-L1 blockade MOA assay; blocked partner: PD-1 on Jurkat-PD1 cells) [2]: 0.143 µg/mL
- Kd [3]: 29.1 nM
- Kd [4]: 0.371 nM

B6: L1-R2-4-47 (antibody, human IgG1, kappa, V domains shown)
VH: EVQLVESGGGLVQPGGSLRLSCAASGFTFSDSWIHWVRQAPGKGLEWVGWISPYGGSTYYADHLSQRFTISADTSKNTAYLQMNSLRAEDTAVYYCARRHWPGGFDYWGQGTLVTVSS
VL: EIVLTQSPSSLSASVGDRVTITCLASQTIGTWLAWYQQKPGKSPQLLIYAASTLQSGVPSRFSGSGSGTDFTLTISSLQPEDVATYYCQQYYSTPRTFGQGTKVEIKR
- EC50 (luciferase reporter, PD-1/PD-L1 blockade MOA assay; blocked partner: PD-1 on Jurkat-PD1 cells) [9]: 0.389 µg/mL
- EC50 (read off the curve) [9]: ~2 µg/mL
- EC50 (read off the curve) [5]: ~0.6 nM
- Kd [10]: 0.29 nM

B7: 47-R2-89 (antibody, human IgG1, kappa, V domains shown)
VH: QVQLQESGPGLVKPSETLSLTCTVSGGSLDNYYWSWIRQPPGKGLEWIGYIYYSGNTNYNPSLKSRVTISVDTSKNQFSLKLSSVTAADTAVYYCARGGRFLERYWGQGTLVTVSS
VL: B6 VL with E1D, V3Q, L4M, T53S, R96Y, E105D
notes: Anti-CD47 monoclonal antibody, L12-6-VH with light chain R2-89
- Kd [11]: 0.361 nM

B8: 47-R2-85 (antibody, human IgG1, kappa, V domains shown)
VH: B7 VH
VL: DIQMTQSPSSLSASVGDRVTIPCRASQGIGKFLAWYQQKPGKAPSLLIYAASSLQSGVPSRFSGSGSGTDFTLTISSLQTEDVAVYYCQQYFSTPYTFGQGTKVDIKR
notes: Anti-CD47 monoclonal antibody, L12-6-VH with light chain R2-85
- Kd [12]: 275 nM

B9: 47-R2-4 (antibody, human IgG1, kappa, V domains shown)
VH: B7 VH
VL: B6 VL
notes: Anti-CD47 monoclonal antibody, L12-6-VH with light chain R2-4; also called parental anti-CD47 antibody 47-R2-4
- binding result [5]: no binding (tested: 10 nM)
- EC50 (read off the curve) [13]: ~0.7 nM
- Kd [12]: 3.29 nM
- EC50 (read off the curve) [14]: ~0.9 nM
- EC50 (read off the curve) [15]: ~3 nM
- EC50 (read off the curve) [6]: ~1 nM

B10: 47-R2-78 (antibody, human IgG1, kappa, V domains shown)
VH: B7 VH
VL: B8 VL with L11F, V15T, P22T, G30S, K31S, F32Y, S45K, S53R, T80A, F92Y
notes: Anti-CD47 monoclonal antibody, L12-6-VH with light chain R2-78
- Kd [12]: 655 nM

B11: L1-R2-4-71 (antibody, human IgG1, kappa, V domains shown)
VH: B6 VH with H63S, L64Y, S65R, Q66S
VL: B6 VL
notes: also called parental anti-PD-L1 antibody L1-R2-4-71
- EC50 (luciferase reporter, PD-1/PD-L1 blockade MOA assay; blocked partner: PD-1 on Jurkat-PD1 cells) [9]: 0.382 µg/mL
- EC50 (read off the curve) [9]: ~2 µg/mL
- EC50 (read off the curve) [5]: ~0.6 nM
- EC50 (luciferase reporter, PD-1/PD-L1 blockade MOA assay; blocked partner: PD-1 on Jurkat-PD1 cells) [2]: 0.292 µg/mL
- EC50 (read off the curve) [7]: ~0.2 nM
- Kd [10]: 0.282 nM
- EC50 (luciferase reporter, PD-1/PD-L1 blockade MOA assay; blocked partner: PD-1 on Jurkat-PD1 cells) [8]: 0.087 µg/mL

B12: 47-R2-6 (antibody, human IgG1, kappa, V domains shown)
VH: B7 VH
VL: EIVLTQSPSSVSASVGDKLTMTCQASQDIGKHLNWYQQKPGKPPKLLIYGASNLKTGVPSRFSGTGSGTDFTLTISSLQPEDFATYYCQQSYTTPYTFGQGTRLEIKR
notes: Anti-CD47 monoclonal antibody, L12-6-VH with light chain R2-6
- Kd [12]: 1.11 nM

B13: 47-R2-18 (antibody, human IgG1, kappa, V domains shown)
VH: B7 VH
VL: B8 VL with D1E, Q3V, M4L, L11V, V19I, P22T, K31S, F32W
notes: Anti-CD47 monoclonal antibody, L12-6-VH with light chain R2-18
- Kd [11]: 0.312 nM
